The text below walks through data of the supplement of paper PMC12042874.

± gives the uncertainty stated by the source.

A short description of the series: amyloid nucleation score (Sup35N fusion, yeast selection) (log enrichment); library NNK3; higher = more nucleation; inactive = no reads after selection. Summed up:
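Peptides of 20 random codons fused to Sup35N were expressed in psi-negative yeast, induced 24 hours with 100 μM copper sulfate, then grown 7 days at 30°C on medium lacking adenine and uracil. Input and output plasmid inserts were Illumina-sequenced. Nucleation score is the DiMSum log enrichment of output over input reads, centred on the mode score of non-aggregating sequences, excluding sequences with under 100 input reads. Random libraries had three technical output replicates.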

With LRQVNQWVDVKASDPNGTAL, the amyloid nucleation score entry is “inactive”.
As for NRTWIGIIHLFGLYYGVCGG, the figure is 0.621 ± 0.2; as for HKSIYF, “inactive”; as for TAYVNSGVEIYGFSVTRNNS, 1.48 ± 0.11.
As for EFLPSCICDGKFISSLVCEP, the entry is “inactive”.
Turning to CFASTRSGVILNYTMVVVDF, the amyloid nucleation score turned out to be 1.78 ± 0.098.
Regarding FIERLARNQFLNAYSMLDCE, the amyloid nucleation score entry is “inactive”.
To KQSYCVWESNYRTMYLNVCR belongs “inactive”; to SSCRDVWWKVVVVPTFTGGV, “inactive”; to IGVDVTYSKGLSGTIDKSLG, “inactive”.
To IFVLLVRANV belongs -0.449 ± 0.7; to WVFISKQLVNDVAWPVLCAL, -0.17 ± 0.85.
As to IGEPCLWNSV, the amyloid nucleation score result was “inactive”.
To MDRYNEPLSNWTKSSEIR belongs “inactive”; to IKYKDKGIWFLVSCGHFRLR, “inactive”; to RLDPLVDFANDLMTSYSR, “inactive”.
Turning to GSRLHRFPNVKLDALFIYRW, the amyloid nucleation score entry is “inactive”.
To WLFLVN belongs “inactive”; to LANTSRTGIFMDSNTDSRN, “inactive”.
To KYVSECK belongs “inactive”.
As for SYLCSGWDRSWAGISCEHSE, the entry is “inactive”; as for SWRKCPNLPSCKTIPNAWVL, “inactive”; as for NMVHCVLCIAHEHLKVFVMC, “inactive”.
Turning to CRYNVIYWGIDSCYHMWSWR, the amyloid nucleation score entry is “inactive”.
As for MFFVRNFCQYVSRRC, the figure is 1.83 ± 0.088.
To QLLGNGP belongs “inactive”; to GPGQLYLLDM, “inactive”; to NYVPQSGYNVDNVLNILTKL, “inactive”.
To FSLGVWSNPDWVRCSHWFIF belongs 1.28 ± 0.14.
Take TNRIHPFERVLFVCVSGQGV: the amyloid nucleation score entry is “inactive”.
As for LSSGG, the figure is 0.088 ± 0.4; as for CQFVKVMCLHSYILRPSPPP, “inactive”; as for SAGLKS, “inactive”.
As for RLSMPPRIFMPNHNCIDHAS, the entry is “inactive”.
Regarding GMNYNKMRTVLSRAPPRVRS, the amyloid nucleation score result is “inactive”.
To LDQPGPDNLNVVNKLNFDWH belongs 0.419 ± 0.26.
As for NNLRNIPE, the entry is “inactive”.
Regarding SNDMRGLVGEEIGFLSWN, the amyloid nucleation score entry was “inactive”.
To SMAMFIFMITLVCYFKDSPW belongs “inactive”; to MYVYSYQVYNLTCARLAKK, “inactive”; to GMRCEYMILTFGLSWKLLLI, “inactive”.
As for GPTNGFMSLNNWYQPLDQPV, the entry is “inactive”; as for TILWGLQTQTQNCVVWKLGR, 1.69 ± 0.12; as for ISNSLSIEGLAY, “inactive”.
As for SARSGAAISTSSNKVTPVYT, the entry is “inactive”; as for DRYYDSLC, “inactive”; as for FDVNIPFCSNSFSYHTNSGS, “inactive”.
Turning to YICCDIRTRALRIRIRCVLM, the amyloid nucleation score is -0.411 ± 0.75.
As for DTESWNCFFYRDYYSGQILK, the entry is “inactive”; as for DNARCSLHFYNSCWISVWKY, “inactive”.
As for LVLVSTFMHVGDVCYHMYY, the figure is 2.99 ± 0.057; as for RYLFRFYSRDVVSMMQ, “inactive”; as for SMSTN, “inactive”.
To KVVFFTALTEPWFSPQFQGL belongs “inactive”; to HFKFLYDS, “inactive”.
As to HWCRQNNSIFMRS, the amyloid nucleation score result is “inactive”.
To VDVERIQFRSICLCLSTFCV belongs 1.53 ± 0.081; to FGVTVSYKWWRWSPLSYCAM, “inactive”; to YAMYSYFFIVAWFFNRS, 0.252 ± 0.39.
As for TSILMPASDVLKMQVVPWLS, the figure is 0.904 ± 0.16; as for TLYWFHTGICAYRMWTSVFF, “inactive”; as for YARYYGCGIWGWWFSNRSLL, “inactive”.
As for RGAVCVNFTSRWSWGIGEHH, the figure is 1.33 ± 0.11; as for TRISTG, “inactive”.
For the substance NRFVDLGGQHDTHCVRGYGL, the amyloid nucleation score entry was “inactive”.
As for LHAWAVVLGFLETP, the entry is “inactive”.
TSFSYNLGTISDRCVWILAD showed an amyloid nucleation score of -0.116 ± 0.9.
To GWHNGDKSYIFVYIRFGPMG belongs 0.955 ± 0.16; to FNKDINRPYKCKAH, “inactive”.
As for YYLMLSIGQYSHTCMDGYVM, the entry is “inactive”; as for LFGDMIMVSSCWSKRNCSVA, “inactive”; as for VQGTILRSRQNCTL, 0.308 ± 0.48.
To ILIPNNFLLMQLDWLLIEF belongs “inactive”; to QDALVSCWKFGAVSDQCDYW, “inactive”.
With DIRYLNNFDSCQYGRGFLAA, the amyloid nucleation score result is “inactive”.
To KLILKYCIRCQNGYDSARMS belongs -0.291 ± 0.5; to DLFWLGFNWHLGCRFYVGAN, “inactive”.
As for SHSNKSMRVNALSKWLY, the entry is “inactive”; as for ENWDSILCKWRGAGMRGSAW, “inactive”.
As for VSNNVQVNQVMYFNTVICIV, the figure is 2.69 ± 0.063.
Turning to CLISQFVY, the amyloid nucleation score result is “inactive”.
To IYAVSCVCVGIYGTIRLTSG belongs 0.017 ± 0.23; to DFLVPIKARNYCLNVGPNTY, “inactive”.
In the case of FISWMLAR, the amyloid nucleation score turned out to be 0.9 ± 0.12.
To KHVMLCCNFRKLHSATHKRT belongs “inactive”; to TAREMYSRKSRILRVILILS, “inactive”.
To ITVCYMNKIWLK belongs “inactive”.
To DIAREVCSTCLKV belongs “inactive”.
As to QNLDSMRGGIRSLLVIIRKS, the amyloid nucleation score result is “inactive”.
As for SFSLKPTDYIFIIVRSRRNP, the entry is “inactive”.
To MRGRFLASPGWFTFRIFFVF belongs 0.836 ± 0.27; to VCTVQCFEKIEL, “inactive”.
As for WIYYNAVFHACCVYELSNNA, the figure is 2.85 ± 0.067; as for RLNCNYTFLLNTIHSPWCCC, “inactive”; as for ERRIPRSNLKRRSKLSKFPA, “inactive”.
The substance FILSVSYIRVCGARC showed an amyloid nucleation score of 0.097 ± 0.48.
To IMDGFWCIDTGCLTAHGMWM belongs “inactive”; to NVLVKYVPAALFRSNSLQET, “inactive”.
As for YSNGASLVWLVNVKK, the figure is 2.19 ± 0.083; as for FVGSLLGKSKFLGLHCCKEV, -0.08 ± 0.66; as for FHLLPKMCLLLSTLIRSGIT, “inactive”.
As for ERSFAYDYDCSVCFTHAFAT, the entry is “inactive”.
As for AVDLV, the amyloid nucleation score result was “inactive”.
As for QVSLLYSVECMTFSFGNGDA, the amyloid nucleation score worked out at 1.6 ± 0.11.
As for MKVNKLRTMPCNINWQFCLP, the figure is 0.819 ± 0.11.
To YSGIRVLFYFSISDDFSQSI belongs 0.756 ± 0.24; to VMHNVM, “inactive”; to RQFVIFYYSLIGHVNSWLRP, “inactive”.
As for LQDKQCHVWDYASGIAYVVE, the entry is “inactive”; as for FINFELLRSSSNNV, “inactive”; as for LCVNCLPRSLIFDSSIWRVD, 0.296 ± 0.87.
NAYCPPSLCVKRLYLFRMTK: the amyloid nucleation score result was “inactive”.
On to MCMSVCFSK, for which the amyloid nucleation score entry is “inactive”.
As for CFVAILNVIFGWSY, the figure is 1.43 ± 0.069.
As for STTLWAIALGLYNTVYSLAN, the entry is “inactive”; as for VVKNTW, “inactive”.
To KVIRESVKSLRHFKFAWLLS belongs “inactive”.
Consider YWSIKELWRFRQLVWRKYIV, for which the amyloid nucleation score entry was “inactive”.
Turning to YSSMYFL, the amyloid nucleation score result was “inactive”.
As for SVVPQDDILLNCGLEQAILG, the entry is “inactive”; as for FNVLNVNS, “inactive”; as for QWSCGFMYSFKHLGGDCYNL, “inactive”.
As for KKKAGLGRDWYWTVFLMVLS, the entry is “inactive”; as for YLLDRLRVSDGYPLQSPWTT, “inactive”; as for VPGDEHRDGKLGAKWWTCRR, “inactive”.
Regarding GRKKWGLSQSCDKLPMGHTS, the amyloid nucleation score result is “inactive”.
To RTVELEIHGLHV belongs “inactive”; to VGIIVFLIAFHYYKRSMYWD, “inactive”.
As for TLWYSFQKSSSNLTRSLGLK, the entry is “inactive”.
As for NIILCCAKVFKPYMSTMTTP, the figure is 1.98 ± 0.061; as for CSQNT, “inactive”.
